Measured values from the supplement of paper PMC9732359.
± gives the uncertainty stated by the source.

Experiment: protein stability index of a GFP-peptide fusion (yeast GPS) (PSI 1-4); higher = more stable; sorted into four equal gates, so the index is relative within each strain
Summary of the method: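 Plasmids in a pooled yeast library fused tiled 17-residue yeast protein peptides downstream of GFP and also expressed Cherry. Mid-log cultures grown without leucine were sorted into four equal gates by GFP/Cherry fluorescence ratio. Each gate's plasmids were PCR-amplified and Illumina-sequenced, and reads were matched to strains by barcodes. The protein stability index is derived by multiplying each gate's read frequency by its gate number and summing the results.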

Row | Sequence | protein stability index (doa10∆) | protein stability index (pdr5∆) | protein stability index (san1∆) | protein stability index (ubr1∆)
1 | QLNSRAVAVVVDPIQSV [RPN11] | 1.27 ± 0.067 | 1.65 ± 0.076 | 1.43 ± 0.12 | 1.48 ± 0.051
2 | KFNAAPEENATEGPSDK [SNF12] | 3.1 ± 0.16 | 3.58 ± 0.14 | 3.26 ± 0.081 | 3.26 ± 0.098
3 | LAIADSPQKFETNLQTF [ECM29] | 2.96 ± 0.11 | 3.3 ± 0.098 | 3.25 ± 0.048 | 2.79 ± 0.091
4 | AKKSTTISKESTPDQRK [ESC2] | 2.59 ± 0.1 | 2.78 ± 0.12 | 2.94 ± 0.13 | 2.92 ± 0.054
5 | KNATDLQQAKLRESEIS [SMC3] | 3.17 ± 0.073 | 3.15 ± 0.071 | 3.11 ± 0.085 | 2.97 ± 0.068
6 | KSCEPVSISTSVKPHVV [SIR4] | 2.6 ± 0.069 | 2.97 ± 0.077 | 2.28 ± 0.11 | 2.42 ± 0.045
7 | ASSAAAGAAGAAAGGDA [RPP2B] | 2.87 ± 0.11 | 3.02 ± 0.084 | 3.21 ± 0.071 | 2.87 ± 0.095
8 | LLPFVKGNVGFVFTNEP [RPP0] |  | 1.77 ± 0.26 |  | 1.84 ± 0.17
9 | YGSSPKLLATSTKIIML [SRB8] | 1.59 ± 0.065 | 1.7 ± 0.063 | 1.63 ± 0.16 | 1.24 ± 0.069
10 | TITIKSYHLWPSFTDEQ [PRP8] | 2.32 ± 0.057 | 2.81 ± 0.061 | 2.41 ± 0.073 | 2.51 ± 0.047
11 | LYDHWDKYHEQWIKFLL [SSN8] | 3.16 ± 0.2 | 3.1 ± 0.13 | 2.84 ± 0.071 | 2.72 ± 0.054
12 | LVALKRNADELSSYQKK [PRE5] | 2.4 ± 0.048 | 2.43 ± 0.041 | 2.68 ± 0.043 | 2.28 ± 0.033
13 | LPNEMSQNDGFVIIRGS [RPO31] | 3.07 ± 0.19 | 3.13 ± 0.16 | 3.23 ± 0.18 | 
14 | IHKIQNDNNLKKLESQE [RPN5] | 3.08 ± 0.2 | 3 ± 0.17 | 2.85 ± 0.11 | 
15 | EHGMNAPSVPEFIYLTK [SNF2] | 3.21 ± 0.092 | 3.28 ± 0.077 | 2.91 ± 0.069 | 3.15 ± 0.059
16 | RIGTIVHKERHDGGFDL [RPS4A] |  | 2.54 ± 0.16 | 1.65 ± 0.17 | 1.99 ± 0.23
17 | DLLKLVHLSNGYKMIPG [FAS1] | 2.3 ± 0.057 | 2.46 ± 0.055 | 2.14 ± 0.064 | 2.24 ± 0.039
18 | VVVKNWGAETDELSMIM [RPS12] | 3.35 ± 0.14 | 3.4 ± 0.14 | 3.23 ± 0.087 | 3.15 ± 0.14
19 | YYVGQVMRNNESTETGY [DIS3] | 3.21 ± 0.069 | 3.19 ± 0.092 | 3.18 ± 0.055 | 3.23 ± 0.064
20 | IPDLSIQNDIYLNDLMI [RPN12] | 2.99 ± 0.046 | 3.06 ± 0.042 | 2.99 ± 0.044 | 3.02 ± 0.046
21 | SRTFDKYSKLVDNVTLE [SRP72] | 3.37 ± 0.12 | 3.36 ± 0.1 | 3.44 ± 0.094 | 3.3 ± 0.1
22 | ENPAFLPGTNNNSNSNN [SEC65] | 3.12 ± 0.17 | 3.13 ± 0.24 | 2.69 ± 0.15 | 2.86 ± 0.067
23 | KALDRHEFFIANHDDQD [SRP68] | 3.1 ± 0.058 | 2.98 ± 0.091 | 2.89 ± 0.057 | 3.17 ± 0.07
24 | DKSTTQLRKEIQLLDEN [MED11] | 1.56 ± 0.093 | 1.54 ± 0.086 | 1.71 ± 0.17 | 1.55 ± 0.068
25 | GASGEERLMSRPFGVAL [PUP2] | 3.36 ± 0.14 | 3.24 ± 0.079 | 2.93 ± 0.073 | 3.13 ± 0.05
26 | IEMYVQEASKQYTKDEQ [RPN2] | 3.3 ± 0.084 | 3.16 ± 0.091 | 3.06 ± 0.057 | 3.31 ± 0.069
27 | KQNPGLMQNMMNMFGGG [SRP54] | 2.05 ± 0.086 | 2.36 ± 0.049 | 2.37 ± 0.088 | 1.8 ± 0.042

Row | Sequence | protein stability index (doa10∆) | protein stability index (pdr5∆) | protein stability index (san1∆) | protein stability index (ubr1∆)
28 | ELTLAEQQVKEAEMAYV [SMC4] | 3.02 ± 0.1 | 3.1 ± 0.076 | 2.81 ± 0.078 | 2.81 ± 0.074
29 | YDNGQVFPSSILDITDE [RPP0] | 1.91 ± 0.048 | 1.79 ± 0.077 | 2.42 ± 0.093 | 1.32 ± 0.073
30 | TNAGYTIELAGGGYFSA [FAS1] | 2.39 ± 0.078 | 2.28 ± 0.088 | 1.72 ± 0.11 | 2.09 ± 0.068
31 | MEETEQKKIQINKEMGE [SMC3] |  |  |  | 2.49 ± 0.26
32 | PAGTSLFGNNAGNTTTG [YGL172W/NUP49] | 2.98 ± 0.16 | 3.24 ± 0.088 | 2.88 ± 0.11 | 3.24 ± 0.084
33 | ISSEKLLTLTNAANVPV [RPP1A] | 2.95 ± 0.091 | 2.9 ± 0.1 | 2.93 ± 0.065 | 3 ± 0.082
34 | YTKKHLSSHSSTNSNSK [RPN4] | 3.37 ± 0.14 | 3.11 ± 0.076 | 2.95 ± 0.055 | 2.95 ± 0.061
35 | LPDEKSDAMSIDEEDKD [YCG1] | 3.04 ± 0.17 | 2.36 ± 0.11 | 2.94 ± 0.12 | 3.06 ± 0.074
36 | VMKDIYKVENVTLYWNN [ESC2] | 1.42 ± 0.088 | 1.62 ± 0.08 | 1.47 ± 0.11 | 1.73 ± 0.084
37 | SGDNHTQQSHEQQPEQP [RPT4] | 2.96 ± 0.052 | 3.15 ± 0.064 | 3.03 ± 0.06 | 2.95 ± 0.049
38 | ITIQLTRDVEPENLQVT [BRR2] | 2.79 ± 0.083 | 3.04 ± 0.13 |  | 2.85 ± 0.078
39 | MNAGGLFGAKPQNTTAT [YGR119C/NUP57] | 2.43 ± 0.049 | 3.29 ± 0.059 | 3.35 ± 0.058 | 2.72 ± 0.059
40 | TATNSKGEQIAIFPYQD [ECM29] | 2.44 ± 0.085 | 2.98 ± 0.12 | 3.29 ± 0.12 | 3.15 ± 0.15
41 | LISDQLLEFFELVFSKG [YML103C/NUP188] | 2.57 ± 0.077 | 2.71 ± 0.11 | 3.1 ± 0.066 | 2.9 ± 0.057
42 | KVTSTLLEQDTSTEKLY [PRE9] | 2.7 ± 0.056 | 3 ± 0.066 | 2.65 ± 0.063 | 2.63 ± 0.08
43 | TAILQRQLQYETLGDIL [ECM29] | 2.62 ± 0.086 | 3.31 ± 0.12 | 2.73 ± 0.098 | 3.02 ± 0.097
44 | GYKSTVKSLRQGKSKLI [RPL30] | 1.31 ± 0.08 | 1.35 ± 0.059 | 1.4 ± 0.2 | 1.48 ± 0.061
45 | LEEITQYEHLIKGIREY [YDL116W/NUP84] | 2.35 ± 0.22 | 3.07 ± 0.13 | 2.94 ± 0.2 | 2.81 ± 0.14
46 | PQQNKTPFSFGTANNNS [YJL041W/NSP1] | 3.28 ± 0.046 | 3.2 ± 0.038 | 3.12 ± 0.035 | 3.05 ± 0.034
47 | PQSAPNQMGMGTNNGMS [YOR098C/NUP1] | 3.4 ± 0.12 | 3.14 ± 0.13 | 3.29 ± 0.098 | 3.31 ± 0.096
48 | ISTGGFMSNDGPTLEKY [SNU114] | 2.22 ± 0.068 | 2.57 ± 0.065 | 2.31 ± 0.071 | 2.12 ± 0.053
49 | TDRESYPRLQDPSRELN [YCS4] | 3.14 ± 0.05 | 3.19 ± 0.043 | 3.23 ± 0.034 | 3.09 ± 0.052
50 | KCPLLVEVDITLSPNVT [GRR1] | 1.8 ± 0.058 | 1.83 ± 0.065 | 1.76 ± 0.088 | 2.51 ± 0.071
51 | TDLIREKTMMTFGKPEE [YCS4] | 3.14 ± 0.053 | 3.31 ± 0.062 | 3.19 ± 0.041 | 3.11 ± 0.05
52 | GSYNAFEPASRLQGIKL [COR1] | 2.95 ± 0.053 | 3.16 ± 0.068 | 3.15 ± 0.063 | 2.99 ± 0.073
53 | TREKVLEDKLRAVLTPL [RRP46] | 2.89 ± 0.17 | 3.05 ± 0.11 | 2.91 ± 0.19 | 2.82 ± 0.11
54 | TISKESTPDQRKRVYNI [ESC2] | 2.92 ± 0.15 | 3.16 ± 0.24 | 3.11 ± 0.17 | 3.01 ± 0.099
